Source: patent US6521594
Starred links: 1 amine or outer side, 2 acyl side, 3 side chain; linkers in the order of their positions; H or OH if unused. Positions of bridges follow the written chain, without caps; N, C: chain ends. Non-standard residues stand in square brackets, D forms with d. Primed or numbered codes have the meaning given here. No end group written: not given here. Pmc′ = pentamethylenecysteine (from Boc-D/L-Pmc), O=C(C(N[*:1])C1(S[*:3])CCCCC1)[*:2]; Cys(β,β-pentamethylene) = O=C([C@@H](N[*:1])C1(S[*:3])CCCCC1)[*:2]; Tyr(Me)″ = COc1ccc(C[C@H](N[*:1])C(=O)[*:2])cc1; 2Nal = N[C@@H](Cc1ccc2ccccc2c1)C(=O)O; Pen = CC(C)(S)[C@H](N)C(=O)O

T1: Vitronectin receptor (human), P06756
T1 chain 1: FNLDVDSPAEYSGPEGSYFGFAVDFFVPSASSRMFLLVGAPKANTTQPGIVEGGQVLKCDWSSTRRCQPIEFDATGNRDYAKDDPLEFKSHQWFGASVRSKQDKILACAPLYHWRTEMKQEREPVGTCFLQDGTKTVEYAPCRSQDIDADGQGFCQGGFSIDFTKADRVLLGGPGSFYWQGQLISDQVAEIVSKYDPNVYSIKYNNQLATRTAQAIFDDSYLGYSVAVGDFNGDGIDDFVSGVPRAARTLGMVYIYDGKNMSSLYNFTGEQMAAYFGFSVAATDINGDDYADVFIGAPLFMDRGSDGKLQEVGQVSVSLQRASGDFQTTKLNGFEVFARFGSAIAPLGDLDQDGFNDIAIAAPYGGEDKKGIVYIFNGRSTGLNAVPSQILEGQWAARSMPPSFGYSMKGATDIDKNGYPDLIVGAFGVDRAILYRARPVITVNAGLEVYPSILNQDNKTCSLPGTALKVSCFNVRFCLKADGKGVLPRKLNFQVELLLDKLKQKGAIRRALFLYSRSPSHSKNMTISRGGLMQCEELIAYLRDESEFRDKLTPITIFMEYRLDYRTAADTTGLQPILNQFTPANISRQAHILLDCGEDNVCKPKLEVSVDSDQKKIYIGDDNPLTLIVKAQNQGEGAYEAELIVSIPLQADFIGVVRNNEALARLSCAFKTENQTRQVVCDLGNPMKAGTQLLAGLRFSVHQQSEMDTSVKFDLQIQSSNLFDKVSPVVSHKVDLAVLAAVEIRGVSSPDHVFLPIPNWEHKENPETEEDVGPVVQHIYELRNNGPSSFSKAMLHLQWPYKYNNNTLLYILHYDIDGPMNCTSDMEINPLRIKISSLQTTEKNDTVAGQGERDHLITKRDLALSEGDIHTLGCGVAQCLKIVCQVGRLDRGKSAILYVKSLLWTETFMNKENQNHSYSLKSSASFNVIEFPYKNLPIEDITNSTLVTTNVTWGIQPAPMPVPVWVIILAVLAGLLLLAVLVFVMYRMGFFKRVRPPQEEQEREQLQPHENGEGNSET
T1 chain 2: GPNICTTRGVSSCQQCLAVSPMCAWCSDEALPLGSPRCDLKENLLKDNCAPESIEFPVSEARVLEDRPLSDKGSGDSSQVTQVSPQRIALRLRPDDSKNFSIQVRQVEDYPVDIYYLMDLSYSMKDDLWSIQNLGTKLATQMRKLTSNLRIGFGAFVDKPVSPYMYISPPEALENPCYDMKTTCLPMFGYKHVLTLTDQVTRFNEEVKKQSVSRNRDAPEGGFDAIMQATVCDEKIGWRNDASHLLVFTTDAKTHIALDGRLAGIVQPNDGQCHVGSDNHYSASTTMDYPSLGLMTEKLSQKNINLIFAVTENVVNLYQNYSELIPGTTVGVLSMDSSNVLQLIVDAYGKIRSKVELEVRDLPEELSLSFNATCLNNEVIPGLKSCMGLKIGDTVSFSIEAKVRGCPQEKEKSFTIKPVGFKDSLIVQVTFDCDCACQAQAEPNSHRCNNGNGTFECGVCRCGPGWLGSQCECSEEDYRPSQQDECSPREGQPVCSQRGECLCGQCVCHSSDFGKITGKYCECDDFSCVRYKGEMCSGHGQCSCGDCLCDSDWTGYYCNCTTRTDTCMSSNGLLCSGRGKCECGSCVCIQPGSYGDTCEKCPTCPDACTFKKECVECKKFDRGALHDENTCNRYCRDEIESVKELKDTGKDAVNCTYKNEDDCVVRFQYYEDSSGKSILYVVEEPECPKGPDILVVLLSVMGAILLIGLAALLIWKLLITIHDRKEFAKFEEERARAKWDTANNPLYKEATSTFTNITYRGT

B1: R(Pmc)G(DY)RGD(Y-OMe)RCR (peptide)
chain: R[Cys(β,β-pentamethylene)]GXRGD[Tyr(Me)″]RCR
modifications: disulfide 2-10; not fully specified (residue 4); printed as R(Pmc)G(DY)RGD(Y-OMe)RCR

Legend:
[1] = biological target: Fibronectin receptor (human), P08648; experiment: ELISA; details: modification not given
Sequence of Fibronectin receptor (human), P08648 (P08648 42-1049, chain 1 of 2): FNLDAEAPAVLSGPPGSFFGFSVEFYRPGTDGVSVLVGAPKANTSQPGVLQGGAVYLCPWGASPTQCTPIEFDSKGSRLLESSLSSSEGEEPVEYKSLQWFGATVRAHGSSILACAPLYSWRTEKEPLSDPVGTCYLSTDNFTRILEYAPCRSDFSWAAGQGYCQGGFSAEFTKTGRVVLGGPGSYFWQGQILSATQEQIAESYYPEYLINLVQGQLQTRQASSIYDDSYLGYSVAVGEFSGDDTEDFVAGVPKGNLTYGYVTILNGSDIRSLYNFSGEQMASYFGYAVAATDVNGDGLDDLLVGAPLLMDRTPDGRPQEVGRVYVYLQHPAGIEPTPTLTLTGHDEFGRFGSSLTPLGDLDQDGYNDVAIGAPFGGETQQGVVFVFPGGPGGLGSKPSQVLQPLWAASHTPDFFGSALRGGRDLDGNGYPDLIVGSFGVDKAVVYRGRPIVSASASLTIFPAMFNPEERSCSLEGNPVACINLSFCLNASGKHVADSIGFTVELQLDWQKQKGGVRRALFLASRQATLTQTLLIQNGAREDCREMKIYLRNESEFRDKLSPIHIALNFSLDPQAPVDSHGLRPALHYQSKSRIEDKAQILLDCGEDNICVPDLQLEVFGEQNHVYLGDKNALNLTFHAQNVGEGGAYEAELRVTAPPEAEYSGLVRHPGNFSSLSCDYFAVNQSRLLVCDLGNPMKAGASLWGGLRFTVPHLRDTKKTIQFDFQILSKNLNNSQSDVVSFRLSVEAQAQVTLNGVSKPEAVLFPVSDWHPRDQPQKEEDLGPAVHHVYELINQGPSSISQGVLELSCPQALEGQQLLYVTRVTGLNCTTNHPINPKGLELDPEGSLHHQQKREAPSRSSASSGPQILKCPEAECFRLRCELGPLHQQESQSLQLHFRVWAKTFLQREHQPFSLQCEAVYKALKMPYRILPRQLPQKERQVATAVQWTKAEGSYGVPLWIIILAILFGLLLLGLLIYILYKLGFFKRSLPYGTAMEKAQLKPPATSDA
Sequence of Fibronectin receptor (human), P08648 (chain, as listed by the source, chain 2 of 2): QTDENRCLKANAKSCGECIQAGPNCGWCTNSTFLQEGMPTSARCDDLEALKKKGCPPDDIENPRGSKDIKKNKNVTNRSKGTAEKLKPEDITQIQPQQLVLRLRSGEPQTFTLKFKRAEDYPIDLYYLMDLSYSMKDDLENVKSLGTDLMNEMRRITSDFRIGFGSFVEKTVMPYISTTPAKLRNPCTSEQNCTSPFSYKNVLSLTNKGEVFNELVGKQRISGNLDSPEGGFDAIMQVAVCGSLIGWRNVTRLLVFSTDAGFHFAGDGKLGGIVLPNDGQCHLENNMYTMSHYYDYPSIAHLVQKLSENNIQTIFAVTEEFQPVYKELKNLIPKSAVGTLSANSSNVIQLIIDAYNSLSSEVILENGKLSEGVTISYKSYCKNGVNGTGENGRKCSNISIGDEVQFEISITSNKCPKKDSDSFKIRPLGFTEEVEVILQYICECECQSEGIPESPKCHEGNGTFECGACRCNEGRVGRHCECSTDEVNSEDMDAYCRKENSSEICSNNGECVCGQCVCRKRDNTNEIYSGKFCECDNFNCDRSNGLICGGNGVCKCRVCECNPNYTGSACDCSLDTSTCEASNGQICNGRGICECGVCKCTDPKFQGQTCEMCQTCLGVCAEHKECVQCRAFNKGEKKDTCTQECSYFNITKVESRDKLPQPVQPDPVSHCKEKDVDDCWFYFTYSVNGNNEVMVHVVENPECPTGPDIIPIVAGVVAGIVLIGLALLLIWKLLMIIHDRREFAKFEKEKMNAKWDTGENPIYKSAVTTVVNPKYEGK

[2] = biological target: Platelet glycoprotein IIb/IIIa (human), P08514; experiment: ELISA; details: modification not given
[3] = biological target: Platelet glycoprotein IIb/IIIa (human), P08514; experiment: cell-based or functional assay
[4] = biological target: Platelet glycoprotein IIb/IIIa (human), P08514; experiment: competition, ELISA or liposome assay
[5] = biological target: T1, Vitronectin receptor (human), P06756; experiment: competition, ELISA or liposome assay, vitronectin coated

Binder | IC50 [1] [nM] | IC50 [2] [nM] | further results
R[Pmc′]SHRGD[Y‑OMe]RCR (disulfide 2-10) [R(Pmc)SHRGD(Y-OMe)RCR] | > 10000 |  | 
R[Cys(β,β-pentamethylene)]GHRGD[2Nal]RCR (disulfide 2-10) [R(Pmc)GHRGD(2-Nal)RCR] |  | 70 | 
G[Pen]IARGDWNCA (disulfide 2-10) [G(Pen)…] |  |  | IC50, ADP-Stimulated Aggregation [3]: 1200 nM; IC50 [4]: 10 nM; IC50 [5]: 40 nM
B1 | 10000 |  | 
R[Pmc′]RHRGD[Y‑OMe]RCR (disulfide 2-10) [R(Pmc)RHRGD(Y-OMe)RCR] |  | 70 | 
